In assay [1] the target is T1, human bone sialoprotein (BSP) in plasma (human, UniProt P21815 17-317, phosphorylated serine at positions 31, 67, 74, 75, 94, 100, 149, 280; sulphated tyrosine; multiple complex glycosylation (as described for human BSP)).
T1 construct: Native BSP as present in human plasma; also called human BSP; hBSP
T1 sequence (looked up): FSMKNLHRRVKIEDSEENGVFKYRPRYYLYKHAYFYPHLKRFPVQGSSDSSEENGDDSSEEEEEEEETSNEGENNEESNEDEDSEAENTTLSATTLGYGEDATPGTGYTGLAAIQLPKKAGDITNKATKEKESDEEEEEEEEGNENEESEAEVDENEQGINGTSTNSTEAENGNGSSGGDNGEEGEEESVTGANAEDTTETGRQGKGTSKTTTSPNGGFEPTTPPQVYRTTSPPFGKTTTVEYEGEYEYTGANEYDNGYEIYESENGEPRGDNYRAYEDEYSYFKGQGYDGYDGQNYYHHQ
The assay can be described thus: screening of a phagemid single chain antibody library with peptide antigen and human BSP in plasma. An excerpt: We screened differentially a synthetic human antibody library for an antibody reacting with synthetic peptide epitopes derived and common to rat or human BSP which we assumed being accessible in plasma. Moreover, we screened a proprietary synthetic human antibody library (mAB-Factory GmbH, Braunschweig, DE), prepared in accordance with DE 4122599 C2 and WO 93/01288 (PCT/EP92/01524), for phagemid-expressed single chain antibodies binding to BSP peptide epitopes with a soluble peptide antigen as indicated and with human BSP in plasma. A respective full human antibody (AF165R4.2-E2) specific for human BSP in plasma was obtained and reconstructed.

Assay [2] deals with T1, human bone sialoprotein (BSP) in plasma. The assay can be described thus: titration and competition experiments.

B1: anti-BSP_IDK2 human mAb (clone AF165R4.2-E2) (antibody, V domains shown)
VH: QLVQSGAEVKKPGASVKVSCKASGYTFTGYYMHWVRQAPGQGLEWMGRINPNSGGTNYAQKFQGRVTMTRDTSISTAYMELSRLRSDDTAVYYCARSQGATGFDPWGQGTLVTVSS
VL: QLVLTQSPSASGTPGQRVTISCSGSSSNIGSSYVYWYQQLPGAAPKLLIYRNSQRPPGVPDRFSSSKSGTSASLAISGLRSEDEADYYCATWDGSLSGWVFGGGTKLTVLG
notes: The entries include a signal peptide that is marked only by underlining in a drawing; Lambda light chain; also called fully human anti-hBSP antibody
For the molecule B1, the binding result in assay [1] is reported as “binds”.

B2: humanized antibody anti-BSP_IDK3 (clone AF177.3) (antibody, V domains shown)
VH: QVQLQQSGAEVVKPGASVKVSCKASGYTFTDFYMHWVKQAPEQGLEWMGIINPANGNTIYAEKFQGRVTMTADKSTNTVYMELSSLTSEDTATYYCSSAYWGQGTLVTVSS
VL: DIVMTQTPPSSSVTIGQPASISCKSSQSLLDNDGNTYLYWYLQKPGQSPQLLIYLVSKRRSGVPDRFSGSGSGTDFTLKISGVEAEDVGVYYCVQGTHDPWTFGGGTKVEIKR
notes: Kappa light chain; also called Humanized mAB of IDK 1
On to B2, for which the binding result in assay [2] is recorded as “binds”.

B3: chimeric version of the rat mAb anti-BSP_IDK1 (antibody, V domains shown)
VH: QVQLQESGAELVRPGSSVKISCKASGYTFTDFYMHWVKQGPEQGLVWIGRINPANGNTIYAEKFKTKATLTADKSSNTAYMQLSSLTSEDTATYFCSSAYWGQGTLVTVSS
VL: DILLTQTPPTSSATIGQSVSISCRSSQSLLDNDGNTYTLYWYLQRPTQSPQLLIYLVSKLRSGVPNRFSGSGSGTDFTLKISGVEAEDLGVYYCVQGTHDPWTFGGGTKLELKR
notes: The entries include a signal peptide that is marked only by underlining in a drawing; Kappa light chain; also called chimeric version of a rat mAB - IDK 1; human chimeric version of a monoclonal rat antibody
With B3, in assay [2], the binding result is listed as “binds”.
